According to PMC7076015:

Legend:
MBP-KPNA7(E344Q) (human) [1] = target: MBP-KPNA7(E344Q) (human) (UniProt A9QM74); test: pull-down; MBP fusion proteins on amylose resin (1 μg/μl), GST-GFP-NLS constructs in solution (250 nM or indicated concentrations) with Imp-β (250 nM); 2 hrs at 4 °C, 20 mM Tris pH 8, 200 mM NaCl, 1 mM EDTA, 1 mM DTT, 0.05% Triton X-100; western blot
MBP-KPNA7(E344Q) (human) [2] = target: MBP-KPNA7(E344Q) (human) (UniProt A9QM74)
MBP-KPNA7(E344Q) (human) [3] = target: MBP-KPNA7(E344Q) (human) (UniProt A9QM74); remark: listed apart in the source

MBP-KPNA7(E344Q) (human), sequence (A9QM74 whole entry E344Q, the tested form may be a part): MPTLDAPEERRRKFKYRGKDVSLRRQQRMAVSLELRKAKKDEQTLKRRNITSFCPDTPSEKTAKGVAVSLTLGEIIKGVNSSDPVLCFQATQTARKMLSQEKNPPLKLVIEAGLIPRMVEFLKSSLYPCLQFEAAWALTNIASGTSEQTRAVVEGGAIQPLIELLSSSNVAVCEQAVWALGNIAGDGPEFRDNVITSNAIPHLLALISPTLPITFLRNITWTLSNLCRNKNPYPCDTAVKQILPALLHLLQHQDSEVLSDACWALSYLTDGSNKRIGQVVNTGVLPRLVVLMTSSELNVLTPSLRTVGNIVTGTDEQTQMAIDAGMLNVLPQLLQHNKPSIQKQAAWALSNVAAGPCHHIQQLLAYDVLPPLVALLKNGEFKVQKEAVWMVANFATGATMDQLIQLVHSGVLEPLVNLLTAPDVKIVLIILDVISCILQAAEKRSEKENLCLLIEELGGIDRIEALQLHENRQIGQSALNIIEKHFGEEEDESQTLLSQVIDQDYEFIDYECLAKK
GST-GFP-hnRNP U monopartite NLS (domain or fragment), sequence (Q00839 2-825): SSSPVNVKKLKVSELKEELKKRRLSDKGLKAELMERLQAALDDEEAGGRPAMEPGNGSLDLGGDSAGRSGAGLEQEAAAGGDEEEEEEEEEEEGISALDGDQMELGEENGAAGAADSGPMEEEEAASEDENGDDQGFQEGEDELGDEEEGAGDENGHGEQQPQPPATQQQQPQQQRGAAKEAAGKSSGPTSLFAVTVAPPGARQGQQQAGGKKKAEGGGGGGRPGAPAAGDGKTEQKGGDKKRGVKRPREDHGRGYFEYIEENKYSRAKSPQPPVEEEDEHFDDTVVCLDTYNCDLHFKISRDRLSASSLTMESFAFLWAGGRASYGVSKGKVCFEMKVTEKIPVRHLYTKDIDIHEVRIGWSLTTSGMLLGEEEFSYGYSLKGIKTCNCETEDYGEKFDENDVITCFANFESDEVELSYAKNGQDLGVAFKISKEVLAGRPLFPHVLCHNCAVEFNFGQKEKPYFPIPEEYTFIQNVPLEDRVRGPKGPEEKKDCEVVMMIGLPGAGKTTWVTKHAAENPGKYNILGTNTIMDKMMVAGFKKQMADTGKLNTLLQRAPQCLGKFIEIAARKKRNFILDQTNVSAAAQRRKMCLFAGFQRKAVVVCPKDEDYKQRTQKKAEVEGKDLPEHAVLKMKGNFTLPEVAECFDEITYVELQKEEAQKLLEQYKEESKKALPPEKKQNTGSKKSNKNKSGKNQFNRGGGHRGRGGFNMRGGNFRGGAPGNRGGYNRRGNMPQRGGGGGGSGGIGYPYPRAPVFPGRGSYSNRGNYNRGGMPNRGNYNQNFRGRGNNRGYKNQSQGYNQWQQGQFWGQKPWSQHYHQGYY

| Substance | fold less binding than WT or P339A KPNA7 (MBP-KPNA7(E344Q) (human) [1]) [fold] | nuclear import of GST-GFP-hnRNP U-mNLS in digitonin-permeabilized HeLa cells, reduction compared to WT KPNA7 (MBP-KPNA7(E344Q) (human) [2]) [%] | nuclear import of GST-GFP-NLS in digitonin-permeabilized HeLa cells, reduction compared to wild-type KPNA7 (MBP-KPNA7(E344Q) (human) [3]) [%] |
| --- | --- | --- | --- |
| GST-GFP-hnRNP U monopartite NLS (domain or fragment) | 8 | 30 | – |
| GST-GFP-SV40-NLS (domain or fragment) | – | – | 20 |
